Data set [1] has as its system HRMEC. As to the kind of experiment: HRMEC wound healing and cell viability assays. It is filed as cell-based. The note with it: in vitro, FIG. 7C-7D.
The test system of data set [2] is 661W cells. As to the kind of experiment: 661W photoreceptor cells with paraquat-induced oxidative stress. It is filed as cell-based. The note with it: PQ-treated 661W, co-treatment with 500 ng/ml PF-05231023, perifosine 5 or 10 μM. On the procedure: Photoreceptors (661W) cell culture: Photoreceptor 661W cells were cultured at 37° Celsius, 5% CO2 in a humidified atmosphere in Dulbecco's modified Eagle's medium (DMEM, #1196502, Gibco) supplemented with 10% fetal bovine serum (#S12450, Atlanta Biologicals) and 1% antibiotic/antimycotic solution. An equal number of cells per well was plated on a 6-well dish. Oxidative stress was induced with 0.5 mM paraquat (PQ, Sigma, #856177) for 1 hour at 37° Celsius. The culture media were changed and the cells were treated with vehicle (PBS) or 500 ng/ml PF-05231023 for 24 hours. Cells were collected for protein and RNA.
Real-time PCR: Retinas or 661W cells were lysed with QIAzol lysis reagent and incubated on ice for 15 minutes. 20% chloroform was added and incubated for 5 minutes at room temperature. […] Quantitative analysis of gene expression was generated using an Applied Biosystems 7300 Sequence Detection System with the SYBR Green Master mix kit and gene expression was calculated relative to Cyclophilin A ((5′-CAG ACG CCA CTG TCG CTT T-3′ (SEQ ID NO: 30); 5′-TGTCTTTGGAACTTTGTCTGCAA-3′(SEQ ID NO: 31)) (retinas) or β-actin ((5′-CGGTTCCGATGCCCTGAGGCTCTT-3′ (SEQ ID NO: 48), 5′-CGTCACACTTCATGATGGAATTGA-3′ (SEQ ID NO: 49)) (photoreceptor 661W cells) using the ΔΔCt method. Each sample was repeated in triplicate. […]

The test system of data set [3] is mice having oxygen-induced retinopathy. Briefly: mouse oxygen-induced retinopathy (OIR), retinal whole mounts and retinal qPCR at P17. It is filed as in vivo. The note with it: WT OIR mice, i.p. daily P12-P16, P17 retinal whole mounts, vs vehicle. Here is the method:
Oxygen-induced retinopathy: mice were exposed to 75% oxygen from P7 to P12. The mice were then returned to room air until P17 (Connor et al., 2009; Smith et al., 1994). High oxygen led to vessel loss and the relative hypoxia induced neovascularization which reached to maximum at P17 (Smith et al., 1994). Both genders of mouse pups were used with body weight ranging from 5.5 to 7 grams (Connor et al., 2009). The mice were randomly assigned to either native FGF21 (5 mg/kg, twice per day) or long-acting FGF21 (1 mg/kg PF-05231023) or phosphate buffered saline (PBS). The mice were intraperitoneally injected daily from P12 to P16. For the intra-vitreal injection of PF-05231023 (0.5 μl 10 μg/μl stock per eye) was delivered using 10 μl syringe with 35G needle (World Precision Instruments, Inc.) at P12. The contralateral eye was injected with vehicle control. At P17, retinal neovascularization was quantified (Connor et al., 2009; Smith et al., 1994). […] Retinal neovascularization was quantified as previously reported (Connor et al., 2009). Percentages of neovascularization were calculated by comparing the number of pixels in the neovascular areas with the total number of pixels in the retina. n is the number of eyes quantified. […]

For data set [4], the system named is hyperglycemic mouse neonates. Briefly: streptozotocin (STZ)-induced hyperglycemic ROP mouse model. It is filed as in vivo. The source says: Hyperglycemia is a recently described risk factor for retinopathy of prematurity (ROP) in premature infants. In streptozotocin (STZ)-induced hyperglycemic ROP mouse model, retinal vascular development was confirmed as delayed. Specifically, FGF21 deficiency delayed normal retinal vascular network formation and worsened hyperglycemic ROP in such mice. Native (nFGF21) and long-acting FGF21 (PF-05231023) treatment were both observed to have promoted retinal vessel growth in hyperglycemic ROP. The protection of FGF21 observed was also confirmed as dependent upon adiponectin (APN).

The conditions of data set [5]: Huang et al., 2013; cited from earlier work.

As for `O=C(COc1ccc(C(=O)c2ccccc2)cc1)NC1CCN(Cc2ccccc2)CC1` [AdipoRon], the “endothelial cell function (wound healing, viability)” value in data set [1] is listed as “inhibited endothelial cell function in vitro”. In the case of `CCCCCCCCCCCCCCCCCCOP(=O)([O-])OC1CC[N+](C)(C)CC1` [perifosine], the “induction of NRF2 expression by PF-05231023” value in data set [2] is on record as “dose-dependently inhibited”.

B1: Native FGF21: native FGF21 (nFGF21), unmodified FGF21 with short half-life (protein, UniProt Q9NSA1 29-209, looked up)
Fibroblast growth factor 21: HPIPDSSPLLQFGGQVRQRYLYTDDAQQTEAHLEIREDGTVGGAADQSPESLLQLKALKPGVIQILGVKTSRFLCQRPDGALYGSLHFDPEACSFRELLLEDGYNVYQSEAHGLPLHLPGNKSPHRDPAPRGPARFLPLPGLPPALPEPPGILAPQPPDVGSSDPLSMVGPSQGRSPSYAS
Turning to B1, the retinal neovascularization result in data set [3] is “did not affect neovascularization”. Moreover, the retinal vascular growth result in data set [4] is given as “improved retinal vascular growth”. In addition, the half-life in data set [5] is 24 min.

Values taken from US12653863B2, “FGF21 compositions for treatment or prevention of neovascularization of the eye and methods therefor” (Children's Medical Center Corporation, priority 2017, dated 2026).
